Assay: soluble on expression in E. coli; label from the status in PepcDB or PDB records
In the case of “GTIVITGTITDQTCTIEDPSPGYIKVVHLPTISKSALKNAGDVAGRTRFDIKLKDCPTTVNTLKLYFEPGPTTDYGTKDLKAYKQAWYVDAATLLKSPPSVTEAKGVQIRLMNLNGKQIPMGETEPNQHAAAFSGTMQAGQAKKSFTLHYLAGYVKKASGEVEATMLTTYVGFSVVYP”, the “soluble on expression in E. coli” value is reported as “not soluble”.
With “GTTDAQGFATVEIKQSQGVGLSTPLNIVPVNSYIPNTVNYNVIFTTLTSPDAVGAQMWGHMDETITVDALTFARPRLAAEVFSPDGTLTENNEVWSRVSQANASSTSKGGCGANMLPRRSQLSALYDANNGNGVQTVHGWPTQRQPYWSSSPADQVPHYYTIALNDGARTVGGSTAVYVSCLTTANNP” the “soluble on expression in E. coli” value was “not soluble”.
For “GVKYAYHGGAMANGIASVELVVALGKAGFLCSFGAAGLVPDAVEDAIKRIQAELPNGPYAVNLIHAPAEEALERGAVERFLKLGVKTVEASAYLGLTEHIVWYRLAGLSKNSDGSVKIGNKVIAKVSRTEVGRRFMEPAPQKLIDKLLAQGKVTQEQAELSKLVPMADDITAEADSGGHTDNRPFLTLLPTIIALRDEVQAQYNFSPALRVGAGGGIGTPEAALAAFNMGSAYIVLGSVNQACVEAGASEYTRKLLAQVEMAD”, the “soluble on expression in E. coli” value was “not soluble”.
With “GWLDLAPSTQVDTETSINVLSDIEFTLNGIYSTMQSSDAYSGRLVYYGDVTGDDMQAVSSTKRTGNYYRFNFTKDNGPSSHWSYLYSIIQNCNLILMNVDKLSIDEDETEYKNDLKGQALAIRGMALFDLTRIFGYPYLKDNGASLGVPIVKELSTIDSKPARNTVAECYTEIISDLKNSTELLSGDFNKGKVNRWAAMTLLSRVYLYKGEYNEALTMAENAIKGAEKEGYALWTNEEYPTAWGNDASASNPGEILFEIVNLTTDSPGKESMGYLNSYNGYDDMCITCSFYQLLKKDPKDVRLKILSFDKKYYAYVNKYQPQQGENITDANIPLIRLSEAYLNAAEAAVQTGDNAKAVKYLNSIVQRANPENSVEGKTLTLENVLDERRKELVAEGHRMYDVIRNGMTVKRIDVKDSDINKTKHNTAYMEYDWNFHKILLPIPKKEMDANPNMKQNPGYVD” the “soluble on expression in E. coli” value was “soluble”.
In the case of “GYQPEKHAVVKSDRGDGRLLSTYAIVHEMLKDTHPQYAYRSGMSAQEFTQWQDGVRAAMVEIMKFPEIKRQPSPVCVKTEKKEGYILEKWEFYPFPKSVSTFLVLKPEHLKGAVPGVLCIPGSGRTKEGLVGEPGICDKLTEDYNNPKVSMALNMVKEGYVAVAVDNAAAGEASDLECYDKGWNYDYDVVSRFLLELGWSWLGYTSYLDMQVLNWMKAQSYIRKDRIVISGFSLGTEPMMVLGVLDKDIYAFVYNDFLCQTQERAVVMTKPDKENRRPFPNSIRHLIPGYWRYFNFPDVVASLAPRPIIFTEGGLDRDFRLVQSAYAASGKPENAEFHHYPKFADKAVRKDVEHLDEGLDSKTYFEAVNVDPPSHYFKNELVIPWLRKVLK”, the “soluble on expression in E. coli” value is reported as “soluble”.
For “HAAGFRRGDLVHNTLSYHFSPGGFIMDGGARACGCAVFPAGVGNTEAQIEAIKQLQPTGYTGTPSYLLTLLQKYQEQYGELPSFTKALVSGEAVTADMQQAFTDKGIAVFQAYASAELGLIAYQVAGEQGLVIGED”, the “soluble on expression in E. coli” value was “not soluble”.
With “HDVIFHIRAKGKNQKLLLSAHPSYSRVHITAQAYENPSEPPMFCMLLRKHIEGGFIEKIEQAGLDRIMIFHIKSRNEIGDETVRKLYVEIMGRHSNIILTDAAENVIIDGLKHLSPSMNSYRTVLPGQDYKLPPAQDKISPLEASEDDILRHLSFQEGRLDKQIVDHFSGVSPLFAKEAVHRAGLANKVTLPKALLALFAEVKEHRFIPNITTVNGKEYFYLLELTHLKGEARRFDSLSELLDRFYFGKAERDRVKQQAQDLERFVVNERKKNANKIKKLEKTLEYSENAKEFQLYGELLTANLYMLKKGD” the “soluble on expression in E. coli” value was “not soluble”.
With “HFESIQAVNKTLNKKGLPPIIVHFIEETLQDYELIGMLNNGYIKAIVLDSHKAKLWLNAMDDIKAHKKVPLRKNGNIAWVMRQNSPQLKAVVNKFIQKSRSGTLLGNVIYSKYIDNTNWLNKALNPKKIAQLEKLSA” the “soluble on expression in E. coli” value was “not soluble”.
With “HGSSTVDELTAAFTGGAATGEGGLTLTAPEIAENGNTVPIEVKAPGAVAIMLLAAGNPEPAVATFNFGPAAADQRAATRIRLAQTQDVIALAKMADGSVVKAQTTVKVTIGGCGG” the “soluble on expression in E. coli” value was “soluble”.
With “HHHHHHHHHHMPPKGWRKDAQGNYPTTSYIKEQENITIQDLLFPKSTIVNLAREVPQQSGKKLLINKDASLALQRGATVFVNHLLLFAREIAKSQDKKSCSVDDVLSALDHIGHSALKGPVRDKLDEYQAAVEQRKKEKLDSGEVDADGDIDMGEDKENVPVEKVKEHDEIEEQGDALQDVEESSEKKQKTESQDVETRVQNLEQT” the “soluble on expression in E. coli” value was “not soluble”.
With “HHHHHHMAGMAMDLGGYLTRIGLDGRPRPDLGTLHAIVAAHNRSIPFENLDPLLGIPVADLSAEALFAKLVDRRRGGYCYEHNGLLGYVLEELGFEVERLSGRVVWMRADDAPLPAQTHNVLSVAVPGADGRYLVDVGFGGQTLTSPIRLEAGPVQQTRHEPYRLTRHGDDHTLAAQVRGEWQPLYTFTTEPRPRIDLEVGSWYVSTHPGSHFVTGLTVAVVTDDARYNLRGRNLAVHRSGATEHIRFDSAAQVLDAIVNRFGIDLGDLAGRDVQARVAEVLDT” the “soluble on expression in E. coli” value was “soluble”.
In the case of “HIWLFFIEEGKNHYRVEFRSNGINVREVALKYGGGGHIQASGAVLKSKRDIIRVVQD”, the “soluble on expression in E. coli” value is reported as “not soluble”.
For “HMNAEINPLHAYFKLPNTVSLVAGSSEGETPLNAFDGALLNAGIGNVALIRISSIMPPEAEIVPLPKLPMGALVPTAYGYIISDVPGETISAAISVAIPKDKSLCGLIMEYEGKCSKKEAEKTVREMAKIGFEMRGWELDRIESIAVEHTVEKLGCAFAAAALWYK”, the “soluble on expression in E. coli” value was “soluble”.
For “HMSICTSEEWQGLMQFTLPVRLCKEIELFHFDIGPFENMWPGIFVYMVHRSCGTSCFELEKLCRFIMSVKKNYRRVPYHNWKHAVTVAHCMYAILQNNHTLFTDLERKGLLIACLCHDLDHRGFSNSYLQKFDHPLAALYSTSTMEQHHFSQTVSILQLEGHNIFSTLSSSEYEQVLEIIRKAIIATDLALYFGNRKQLEEMYQTGSLNLNNQSHRDRVIGLMMTACDLCSVTKLWPVTKLTANDIYAEFWAEGDEMKKLGIQPIPMMDRDKKDEVPQGQLGFYNAVAIPCYTTLTQILPPTEPLLKACRDNLSQWEKVIRGEETATWISSPSVAQKAAASED”, the “soluble on expression in E. coli” value was “soluble”.
With “HQITRTVPAKRGTIYDRNGVPIAEDATSYNVYAVIDKKYKSATGKILYVEDAQFNKVAEVFHKYLDMEESYVREQLSQPNLKQVSFGSKGNGITYANMMAIKKELETAEVKGIDFTTSPNRSYPNGQFASSFIGLAQLHENEDGSKSLLGTSGMESSLNSILAGTDGIITYEKDRVGNIVPGTELVSQQTVDGKDVYTTLSSPLQSFMETQMDAFLEKVKGKYMTATLVSAKTGEILATTQRPTFNADTKEGITEDFVWRDILYQSNYEPGSAMKVMTLASSIDNNTFPSGEYFNSSELKIADATTRDWDVNEGLTTGGMMTFLQGFAHSSNVGMSLLEQKMGDATWLDYLKRFKFGVPTRFGLTDEYAGQLPADNIVSIAQSSFGQGISVTQTQMLRAFTAIANDGVMLEPKFISAIYDTNNQSVRKSQKEIVGNPVSKEAASTTRNHMILVGTDPLYGTMYNHYTGKPIITVPGQNVAVKSGTAQIADEKNGGYLVGSTNYIFSAVTMNPAENPDFILYVTVQQPEHYSGIQLGEFATPILERASAMKESLNLQSPAKNLDKVTTESSYAMPSIKDISPGELAEALRRNIVQPIVVGTGTKIKETSVEEGTNLAPNQQVLLLSDKVEEIPDMYGWKKETAETFAKWLDIELEFEGSGSVVQKQDVRTNTAIKNIKKIKLTLGD” the “soluble on expression in E. coli” value was “soluble”.
With “HSLLPVDDAINGLSEEQRQLRQTMAKFLQEHLAPKAQEIDRSNEFKNLREFWKQLGNLGVLGITAPVQYGGSGLGYLEHVLVMEEISRASGAVGLSYGAHSNLCINQLVRNGNEAQKEKYLPKLISGEYIGALAMSEPNAGSDVVSMKLKAEKKGNHYILNGNKFWITNGPDADVLIVYAKTDLAAVPASRGITAFIVEKGMPGFSTSKKLDKLGMRGSNTCELIFEDCKIPAANILGHENKGVYVLMSGLDLERLVLAGGPLGLMQAVLDHTIPYLHVREAFGQKIGHFQLMQGKMADMYTRLMACRQYVYNVAKACDEGHCTAKDCAGVILYSAECATQVALDGIQCFGGNGYINDFPMGRFLRDAKLYEIGAGTSEVRRLVIGRAFNADFH” the “soluble on expression in E. coli” value was “soluble”.

— the DeepSol protein solubility set
